Assay results from paper PMC5816949, “Highly Sensitive Colorimetric Biosensor for Staphylococcal Enterotoxin B by a Label-Free Aptamer and Gold Nanoparticles”.
Read-outs that look alike come from different tables or passages of the source.

B1: SEB2 aptamer (ssDNA)
DNA: TAGCTCACTCATTAGGCACGGGTAGGCCATAATATCTTATTAGCGTAATTCTGCGATTGGCATAGTTAAGCCAGCC

Tests used:
[1] = molecular target: Staphylococcal enterotoxin B (SEB, r-SEB) (Staphylococcus aureus, UniProt P01552 28-266)
[2] = molecular target: Staphylococcal enterotoxin B (SEB, r-SEB) (Staphylococcus aureus, UniProt P01552 28-266); experiment: AuNP colorimetric aggregation assay; 240 nM random DNA; conditions: protein: recombinant; label: none

Row | Binder | binding result [1] | binding result [2]
1 | B1 | binds | –
2 | CGTAGTCTAGTGTCGATTAGTTTCCTTGAGACCTTGTGCT (ssDNA) [random ssDNA (RDNA)] | – | no binding
